Laboratory results reported in patent publication US10912839B2, “Methods of treating cancer using compounds containing a vascular disrupting agent” (priority 2008, dated 2021).
Non-standard residues stand in square brackets, D forms with d. Residues, ends and D or L forms follow the SMILES beside them. No end group written: not given here. *: point of attachment. NH(Colchicin-10-yl) = COc1cc2c(c(OC)c1OC)-c1ccc(N*)c(=O)cc1[C@@H](NC(C)=O)CC2; FITC = O=C1OC2(c3ccc(O)cc3Oc3cc(O)ccc32)c2ccc(NC(=S)*)cc21; hPhe = N[C@@H](CCc1ccccc1)C(=O)O; Cit = NC(=O)NCCC[C@H](N)C(=O)O; βAla = NCCC(=O)O

Columns and labels:
[1] = Ex vivo prodrug stability in normal mouse liver homogenate (LC/MS/MS); type: in vitro ADME; details: for half-life: mouse, tissue homogenate, murine liver homogenate, mean of four independent experiments, read-out: Liver t½; for stability in liver homogenate: normal mouse liver homogenate ex vivo
Excerpt: (§1) Liver was representative of all normal tissues analysed. (FIG. 5) • d.
(§2) Half lives are the mean taken from four independent experiments. Liver represent murine liver homogenate and tumour represents HT1080

[2] = Ex vivo prodrug metabolism in HT1080 tumour homogenate (LC/MS/MS); type: in vitro ADME, human; details: for half-life: human, tissue homogenate, HT1080 tumour homogenate, mean of four independent experiments, read-out: Tumour t½
Excerpt: as §1, §2

[3] = Tissue levels of prodrug and VDA2 after intraperitoneal dosing of HT1080 tumour-bearing mice; type: in vivo; details: for VDA2 levels in tumour following prodrug administration: HT1080 tumour; for prodrug accumulation in tissues / site of highest prodrug levels: HT1080 tumour-bearing mice
Excerpt: as §1

[4] = Ex vivo prodrug stability in normal mouse plasma (LC/MS/MS); details: for stability in plasma: normal mouse plasma ex vivo; for stability in plasma and/or liver: alternative endcaps on MT-MMP prodrug
Excerpt: Prodrug cleavage and metabolism were detected using LC/MS/MS. • a.

[5] = Off-target toxicity by mouse body weight in antitumour study; type: in vivo, Balb/C mice
Method: (§3) ICT-2552 and ICT-2588 (‘prodrug’) were administered as a single dose via the intraperitoneal route to Balb/C mice bearing subcutaneous HT1080 xenografts. Each of the nine dosing groups comprised 8 mice. The anti-tumour effects of the compounds were assessed by determination of tumour volume and the existence of off-target toxicity was ascertained via monitoring mouse body weight.
(§4) The dosing groups evaluated ICT-2588 (prodrug) relative to the molar equivalent dose of ICT-2552 (warhead), and were: • 10% DMSO/oil (solvent control) • ICT-2588 at 37.5 mg/kg; 50.0 mg/kg; 62.5 mg/kg; 75.0 mg/kg • ICT-2552 at 7.5 mg/kg; 10.0 mg/kg; 12.5 mg/kg; 15 mg/kg Results
The weight of all mice was within the tolerated loss of 15% of bodyweight, therefore the compounds are not classified as toxic to the whole body system.

HT1080 xenografts = experiment: Dose response antitumour study, subcutaneous HT1080 xenografts; type: in vivo, Balb/C mice; details: for Growth delay: vs control
Method: as §3, §4

[6] = ICT-2552 10.0 mg/kg single i.p.
[7] = ICT-2552 12.5 mg/kg single i.p.
[8] = ICT-2552 15.0 mg/kg single i.p.

COc1cc2c(c(OC)c1OC)-c1ccc(NC(=O)[C@H](Cc3ccc(O)cc3)NC(=O)[C@H](CC(C)C)NC(=O)[C@H](CO)NC(=O)[C@H](CCc3ccccc3)NC(=O)CNC(=O)[C@H](CCCNC(N)=O)NC(=O)[C@H](CO)NC(=O)[C@H](CCCNC(=N)N)NC(=O)CCNC(=S)Nc3ccc4c(c3)C(=O)OC43c4ccc(O)cc4Oc4cc(O)ccc43)c(=O)cc1[C@@H](NC(C)=O)CC2 [ICT3054] ({FITC-βAla}-RS[Cit]G[hPhe]SLY-{NH(Colchicin-10-yl)})
half-life [1]: 66 min | half-life [2]: 9 min

COc1cc2c(c(OC)c1OC)-c1ccc(NC(=O)[C@H](Cc3ccc(O)cc3)NC(=O)[C@H](CC(C)C)NC(=O)[C@H](Cc3ccc(O)cc3)NC(=O)[C@H](CCc3ccccc3)NC(=O)CNC(=O)[C@H](CCCNC(N)=O)NC(=O)[C@H](CO)NC(=O)[C@H](CCCNC(=N)N)NC(=O)CCNC(=S)Nc3ccc4c(c3)C(=O)OC43c4ccc(O)cc4Oc4cc(O)ccc43)c(=O)cc1[C@@H](NC(C)=O)CC2 [ICT-2588] ({FITC-βAla}-RS[Cit]G[hPhe]YLY-{NH(Colchicin-10-yl)})
half-life [1]: 149 min | stability in liver homogenate [1]: remained stable | metabolism in tumour homogenate, high versus low MT-MMP ([2]; HT1080 (high MT-MMP) relative to MCF7 (low MT-MMP) homogenate): metabolised rapidly | half-life [2]: 33 min | VDA2 levels in tumour following prodrug administration [3]: High concentrations | prodrug accumulation in tissues [3]: accumulated and was detected in all tissues analysed | site of highest prodrug levels [3]: Highest prodrug-2 levels were observed in the tumour | VDA2 in plasma following prodrug administration ([3]; plasma): undetectable | VDA2 level in tumour relative to normal tissues ([3]; tumour vs normal tissues): 10 times higher | levels of prodrug-2 and VDA2 in tumour 48 hours post administration ([3]; tumour, 48 hours): still detectable | stability in plasma [4]: remained intact | Maximum % weight loss ([5]; ICT-2588 37.5 mg/kg): 3 (3) % | day of maximum weight loss ([5]; ICT-2588 37.5 mg/kg): 3 (3) day | Maximum % weight loss ([5]; ICT-2588 50.0 mg/kg): 5% | day of maximum weight loss ([5]; ICT-2588 50.0 mg/kg): 3 days | Maximum % weight loss ([5]; ICT-2588 62.5 mg/kg): 4% | day of maximum weight loss ([5]; ICT-2588 62.5 mg/kg): 3 days | Maximum % weight loss ([5]; ICT-2588 75.0 mg/kg): 5% | day of maximum weight loss ([5]; ICT-2588 75.0 mg/kg): 3 days

Quinic acid+2×D-Serine: conjugate based on MT-MMP prodrug (SEQ ID NO: 4) with quinic acid+2×D-Serine endcap (RS[Cit]G[hPhe]YLY; not fully specified (N-terminus); also: quinic acid + 2×D-Ser endcap, end not given here)
stability in plasma and/or liver [4]: insufficiently stable

COc1cc2c(c(OC)c1OC)-c1ccc(N)c(=O)cc1[C@@H](NC(C)=O)CC2 [ICT-2552, azademethylcolchicine]
Mean time to RTV2 (HT1080 xenografts; ICT-2552 7.5 mg/kg single i.p.): 4.0 days | Median time RTV2 (HT1080 xenografts; ICT-2552 7.5 mg/kg single i.p.): 3.8 days | Growth delay (HT1080 xenografts; ICT-2552 7.5 mg/kg single i.p.): 1.6 days | Mean time to RTV2 (HT1080 xenografts; [6]): 4.4 days | Median time RTV2 (HT1080 xenografts; [6]): 4.2 days | Growth delay (HT1080 xenografts; [6]): 2.0 days | Mean time to RTV2 (HT1080 xenografts; [7]): 4.5 days | Median time RTV2 (HT1080 xenografts; [7]): 4.7 days | Growth delay (HT1080 xenografts; [7]): 2.5 days | Mean time to RTV2 (HT1080 xenografts; [8]): 4.1 days | Median time RTV2 (HT1080 xenografts; [8]): 4.1 days | Growth delay (HT1080 xenografts; [8]): 1.9 days | delay in tumour growth (HT1080 xenografts; all evaluated doses): significant delay in tumour growth | tumour response (HT1080 xenografts; all tested dose levels): Tumour responses were observed | Maximum % weight loss ([5]; ICT-2552 7.5 mg/kg): 3% | day of maximum weight loss ([5]; ICT-2552 7.5 mg/kg): 4 days | Maximum % weight loss ([5]; ICT-2552 10.0 mg/kg): 6 (6) % | day of maximum weight loss ([5]; ICT-2552 10.0 mg/kg): 6 (6) day | Maximum % weight loss ([5]; ICT-2552 12.5 mg/kg): 6% | day of maximum weight loss ([5]; ICT-2552 12.5 mg/kg): 1 days | Maximum % weight loss ([5]; ICT-2552 15.0 mg/kg): 5% | day of maximum weight loss ([5]; ICT-2552 15.0 mg/kg): 1 days

COc1cc2c(c(OC)c1OC)-c1ccc(NC(=O)[C@H](Cc3ccc(O)cc3)NC(=O)[C@H](CC(C)C)NC(=O)[C@H](CC(C)C)NC(=O)[C@H](CCc3ccccc3)NC(=O)CNC(=O)[C@H](CCCNC(N)=O)NC(=O)[C@H](CO)NC(=O)[C@H](CCCNC(=N)N)NC(=O)CCNC(=S)Nc3ccc4c(c3)C(=O)OC43c4ccc(O)cc4Oc4cc(O)ccc43)c(=O)cc1[C@@H](NC(C)=O)CC2 [ICT3080] ({FITC-βAla}-RS[Cit]G[hPhe]LLY-{NH(Colchicin-10-yl)})
half-life [1]: 134 min | half-life [2]: 48 min

COc1cc2c(c(OC)c1OC)-c1ccc(NC(=O)[C@H](Cc3ccc(O)cc3)NC(=O)[C@H](CC(C)C)NC(=O)[C@H](C)NC(=O)[C@H](CCc3ccccc3)NC(=O)CNC(=O)[C@H](CCCNC(N)=O)NC(=O)[C@H](CO)NC(=O)[C@H](CCCNC(=N)N)NC(=O)CCNC(=S)Nc3ccc4c(c3)C(=O)OC43c4ccc(O)cc4Oc4cc(O)ccc43)c(=O)cc1[C@@H](NC(C)=O)CC2 [ICT3053] ({FITC-βAla}-RS[Cit]G[hPhe]ALY-{NH(Colchicin-10-yl)})
half-life [1]: 76 min | half-life [2]: 17 min

COc1cc2c(c(OC)c1OC)-c1ccc(NC(=O)[C@H](Cc3ccc(O)cc3)NC(=O)[C@H](CC(C)C)NC(=O)[C@H](Cc3ccc(O)cc3)NC(=O)[C@H](CCc3ccccc3)NC(=O)CNC(=O)[C@H](CCCNC(N)=O)NC(=O)[C@H](CO)NC(=O)[C@H](CCCNC(=N)N)NC(=O)[C@@H](CO)NC(=O)[C@@H](CO)NC(=O)[C@H](N)CO)c(=O)cc1[C@@H](NC(C)=O)CC2 [3×D-Serine] (H-[dS][dS][dS]RS[Cit]G[hPhe]YLY-{NH(Colchicin-10-yl)})
stability in plasma and/or liver [4]: insufficiently stable

COc1cc2c(c(OC)c1OC)-c1ccc(NC(=O)[C@H](Cc3ccc(O)cc3)NC(=O)[C@H](CC(C)C)NC(=O)[C@H](CC(N)=O)NC(=O)[C@H](CCc3ccccc3)NC(=O)CNC(=O)[C@H](CCCNC(N)=O)NC(=O)[C@H](CO)NC(=O)[C@H](CCCNC(=N)N)NC(=O)CCNC(=S)Nc3ccc4c(c3)C(=O)OC43c4ccc(O)cc4Oc4cc(O)ccc43)c(=O)cc1[C@@H](NC(C)=O)CC2 [ICT3078] ({FITC-βAla}-RS[Cit]G[hPhe]NLY-{NH(Colchicin-10-yl)})
half-life [1]: 76 min | half-life [2]: 11 min

COc1cc2c(c(OC)c1OC)-c1ccc(NC(=O)[C@H](Cc3ccc(O)cc3)NC(=O)[C@H](CC(C)C)NC(=O)[C@H](CC(=O)O)NC(=O)[C@H](CCc3ccccc3)NC(=O)CNC(=O)[C@H](CCCNC(N)=O)NC(=O)[C@H](CO)NC(=O)[C@H](CCCNC(=N)N)NC(=O)CCNC(=S)Nc3ccc4c(c3)C(=O)OC43c4ccc(O)cc4Oc4cc(O)ccc43)c(=O)cc1[C@@H](NC(C)=O)CC2 [ICT3055] ({FITC-βAla}-RS[Cit]G[hPhe]DLY-{NH(Colchicin-10-yl)})
half-life [1]: 67 min | half-life [2]: 7 min

COc1cc2c(c(OC)c1OC)-c1ccc(NC(=O)[C@H](Cc3ccc(O)cc3)NC(=O)[C@H](CC(C)C)NC(=O)[C@H](Cc3ccc(O)cc3)NC(=O)[C@H](CCc3ccccc3)NC(=O)CNC(=O)[C@H](CCCNC(N)=O)NC(=O)[C@@H]3CCCN3C(=O)[C@H](CCC(=O)O)NC(=O)CCNC(=S)Nc3ccc4c(c3)C(=O)OC43c4ccc(O)cc4Oc4cc(O)ccc43)c(=O)cc1[C@@H](NC(C)=O)CC2 [Prodrug-1] ({FITC-βAla}-EP[Cit]G[hPhe]YLY-{NH(Colchicin-10-yl)})
stability in liver homogenate [1]: stable | metabolism in tumour homogenate ([2]; HT1080 xenograft homogenate ex vivo): metabolised | prodrug level after 24 hours post-dosing ([3]; 24 hours): not detectable | VDA2 levels in tumour following prodrug administration [3]: detected at high levels | prodrug accumulation in tissues [3]: accumulated and was detected in all tissues analysed | site of highest prodrug levels [3]: Highest prodrug-1 levels were observed in the tumour | VDA2 levels in normal tissues following prodrug administration ([3]; normal tissues): detectable at low levels | VDA2 in normal tissues after 24 hours post-dosing ([3]; normal tissues, 24 hours): undetectable | VDA2 in tumour after 24 hours post-dosing ([3]; tumour, 24 hours): still detectable at high levels | stability in plasma [4]: stable

COc1cc2c(c(OC)c1OC)-c1ccc(NC(=O)[C@H](Cc3ccc(O)cc3)NC(=O)[C@H](CC(C)C)NC(=O)[C@@H]3CCCN3C(=O)[C@H](CCc3ccccc3)NC(=O)CNC(=O)[C@H](CCCNC(N)=O)NC(=O)[C@H](CO)NC(=O)[C@H](CCCNC(=N)N)NC(=O)CCNC(=S)Nc3ccc4c(c3)C(=O)OC43c4ccc(O)cc4Oc4cc(O)ccc43)c(=O)cc1[C@@H](NC(C)=O)CC2 [ICT3097] ({FITC-βAla}-RS[Cit]G[hPhe]PLY-{NH(Colchicin-10-yl)})
half-life [1]: 110 min | half-life [2]: 24 min
